{
  "source": "the RNAGym collection of RNA variant scans (doi:10.7554/elife.80360)",
  "parents": {"B1": {"name": "Hairpin Ribozyme (parent)", "chain": "GUCCUCUUUCACGUGCGCGUGAAAGAGAGAAGUGAACCAGAGAAACACACGUUGUGGUAUAUUACCUGGUA"}},
  "data": [
    {"variants_of": "B1", "assay": "self-cleavage, relative activity (ratio to wild type); higher = more cleavage; co-transcriptional", "values": [
      {"variant": "GUCCUCUUUCACGUGCGCGUGAGAGAGAGAAGUGAACCAGAGAAACACACGUUGUGGUAUAUAACCUGGUA", "note": "[A23G U63A]", "self-cleavage": 0.113},
      {"variant": "GUCCUCUUUCACGUGCGCGUGAUAGAGAGAAGUGAACCAGAGAAACACACGUUGUGGUAUAUUACCUGUUA", "note": "[A23U G69U]", "self-cleavage": 0.247},
      {"variant": "GUCCUCUUUCACGUGCGCGUGAUAGAGAGAAGGGAACCAGAGAAACACACGUUGUGGUAUAUUACCUGGUA", "note": "[A23U U33G]", "self-cleavage": 0.158},
      {"variant": "GUCCUCUUUCACGUGCGCGUGAUAGAGAGAAGUGAACCAGAGAAACAUACGUUGUGGUAUAUUACCUGGUA", "note": "[A23U C48U]", "self-cleavage": 0.118},
      {"variant": "GUCCUCUUUCACGUGCGCGUGAUAGAGAGAAGUGAACCAGAGAAACACACUUUGUGGUAUAUUACCUGGUA", "note": "[A23U G51U]", "self-cleavage": 0.893},
      {"variant": "GUCCUCUUUCACGUGCGCGUGAUAGAGAGAAGUGAACCAGAGAAACACACGUUGUGGUAUAUUACCUGGAA", "note": "[A23U U70A]", "self-cleavage": 0.729},
      {"variant": "GUCCUCUUUCACGUGCGCGUGAUAGAGAGAAGUGAACCAGAGAAACACACGUUGUGGUAUAUUACCUGGGA", "note": "[A23U U70G]", "self-cleavage": 0.647},
      {"variant": "GUCCUCUUUCACGUGCGCGUGAUAGAGAGAAGUGAACCAGAGAAACACACGUUGUGGUAUAUUACCGGGUA", "note": "[A23U U67G]", "self-cleavage": 0.213},
      {"variant": "GUCCUCUUUCACGUGCGCGUGAUAGAGAGAAGUGAACCAGAGAAACACACGUUGUGGUAUAUUACCAGGUA", "note": "[A23U U67A]", "self-cleavage": 0.237},
      {"variant": "GUCCUCUUUCACGUGCGCGUGAUAGAGAGAAGUGAACCAGAGAAACACACGUUGUGGUAUAUUACCCGGUA", "note": "[A23U U67C]", "self-cleavage": 0.229},
      {"variant": "GUCCUCUUUCACGUGCGCGUGAGAGAGAGAAGUGAACCAGAGAAACACACGUUGUGGUAUAUUACCUGUUA", "note": "[A23G G69U]", "self-cleavage": 0.148},
      {"variant": "GUCCUCUUUCACGUGCGCGUGAUAGAGAGAAGUGAACCAGAGAAACACACGUUGUGGUAUAUGACCUGGUA", "note": "[A23U U63G]", "self-cleavage": 0.199},
      {"variant": "GUCCUCUUUCACGUGCGCGUGAGAGAGAGAAGUGAACCAGAUAAACACACGUUGUGGUAUAUUACCUGGUA", "note": "[A23G G42U]", "self-cleavage": 0.359},
      {"variant": "GUCCUCUUUCACGUGCGCGUGAGAGAGAGAAGUGAACCAGAAAAACACACGUUGUGGUAUAUUACCUGGUA", "note": "[A23G G42A]", "self-cleavage": 0.192},
      {"variant": "GUCCUCUUUCACGUGCGCGUGAUAGAGAGAAGUGAACCAGACAAACACACGUUGUGGUAUAUUACCUGGUA", "note": "[A23U G42C]", "self-cleavage": 0.259},
      {"variant": "GUCCUCUUUCACGUGCGCGUGAUAGAGAGAAGUGAACCAGAUAAACACACGUUGUGGUAUAUUACCUGGUA", "note": "[A23U G42U]", "self-cleavage": 0.246},
      {"variant": "GUCCUCUUUCACGUGCGCGUGAUAGAAAGAAGUGAACCAGAGAAACACACGUUGUGGUAUAUUACCUGGUA", "note": "[A23U G27A]", "self-cleavage": 0.394},
      {"variant": "GUCCUCUUUCACGUGCGCGUGAUAGCGAGAAGUGAACCAGAGAAACACACGUUGUGGUAUAUUACCUGGUA", "note": "[A23U A26C]", "self-cleavage": 0.545},
      {"variant": "GUCCUCUUUCACGUGCGCGUGAUAGUGAGAAGUGAACCAGAGAAACACACGUUGUGGUAUAUUACCUGGUA", "note": "[A23U A26U]", "self-cleavage": 0.606},
      {"variant": "GUCCUCUUUCACGUGCGCGUGAUAGAGAGGAGUGAACCAGAGAAACACACGUUGUGGUAUAUUACCUGGUA", "note": "[A23U A30G]", "self-cleavage": 0.228},
      {"variant": "GUCCUCUUUCACGUGCGCGUGAUAGAGAGCAGUGAACCAGAGAAACACACGUUGUGGUAUAUUACCUGGUA", "note": "[A23U A30C]", "self-cleavage": 0.201},
      {"variant": "GUCCUCUUUCACGUGCGCGUGAUAGAGAGAAGUGAACCAAAGAAACACACGUUGUGGUAUAUUACCUGGUA", "note": "[A23U G40A]", "self-cleavage": 0.309},
      {"variant": "GUCCUCUUUCACGUGCGCGUGAGAGAGAGAAGUGAACCAGAGAAACACACGUUGUGGUAUAUUACGUGGUA", "note": "[A23G C66G]", "self-cleavage": 0.265},
      {"variant": "GUCCUCUUUCACGUGCGCGUGAUAGAGAGAAGUGAACCAGAGAAACACACGUUGUGAUAUAUUACCUGGUA", "note": "[A23U G57A]", "self-cleavage": 0.116},
      {"variant": "GUCCUCUUUCACGUGCGCGUGAACGAGAGAAGUGAACCAGAGAAACACACGUUGUGGUAUAUUACCUGGUA", "note": "[A24C]", "self-cleavage": 0.894},
      {"variant": "GUCCUCUUUCACGUGCGCGUGAGAGAGAGAAGUGAACCAGAGAAACACACGUAGUGGUAUAUUACCUGGUA", "note": "[A23G U53A]", "self-cleavage": 0.727},
      {"variant": "GUCCUCUUUCACGUGCGCGUGAGAGAGAUAAGUGAACCAGAGAAACACACGUUGUGGUAUAUUACCUGGUA", "note": "[A23G G29U]", "self-cleavage": 0.164},
      {"variant": "GUCCUCUUUCACGUGCGCGUGAUAGAGAGAAGUGAACCAGAGAAACACACGUUGUGGUAUAUUAACUGGUA", "note": "[A23U C65A]", "self-cleavage": 0.752},
      {"variant": "GUCCUCUUUCACGUGCGCGUGAUAGAGAGAAGUGAACCAGAGAAACACACGUUGUGGUAUAUUAUCUGGUA", "note": "[A23U C65U]", "self-cleavage": 0.402},
      {"variant": "GUCCUCUUUCACGUGCGCGUGAGAGAGAGAAGUAAACCAGAGAAACACACGUUGUGGUAUAUUACCUGGUA", "note": "[A23G G34A]", "self-cleavage": 1.12},
      {"variant": "GUCCUCUUUCACGUGCGCGUGAUAGAGAGAUGUGAACCAGAGAAACACACGUUGUGGUAUAUUACCUGGUA", "note": "[A23U A31U]", "self-cleavage": 0.166},
      {"variant": "GUCCUCUUUCACGUGCGCGUGAGAGAGAGAAGUGAACCAGAGAAACACACGUUGUGGUAUAAUACCUGGUA", "note": "[A23G U62A]", "self-cleavage": 0.116},
      {"variant": "GUCCUCUUUCACGUGCGCGUGAGAGAGAGAAAUGAACCAGAGAAACACACGUUGUGGUAUAUUACCUGGUA", "note": "[A23G G32A]", "self-cleavage": 0.0936},
      {"variant": "GUCCUCUUUCACGUGCGCGUGAGAGAGAGAAGUGAACCAAAGAAACACACGUUGUGGUAUAUUACCUGGUA", "note": "[A23G G40A]", "self-cleavage": 0.234},
      {"variant": "GUCCUCUUUCACGUGCGCGUGAGAGAGAGAAGUGAACCAUAGAAACACACGUUGUGGUAUAUUACCUGGUA", "note": "[A23G G40U]", "self-cleavage": 0.278},
      {"variant": "GUCCUCUUUCACGUGCGCGUGAUAGAGAGAAGUGAACCAGAGUAACACACGUUGUGGUAUAUUACCUGGUA", "note": "[A23U A43U]", "self-cleavage": 0.123},
      {"variant": "GUCCUCUUUCACGUGCGCGUGAUAGAGAGAAGUGAACCAGAGAAAUACACGUUGUGGUAUAUUACCUGGUA", "note": "[A23U C46U]", "self-cleavage": 0.131},
      {"variant": "GUCCUCUUUCACGUGCGCGUGAUAGAGUGAAGUGAACCAGAGAAACACACGUUGUGGUAUAUUACCUGGUA", "note": "[A23U A28U]", "self-cleavage": 0.674}
    ]}
  ]
}
